Key:
[1] = biological target: highest binding amyloid (in vitro); assay: in vitro binding to amyloid, format not stated
[2] = biological target: highest binding amyloid (in vitro); assay: calculated from in vitro binding to amyloid, format not stated

EC50 [1]: 157 mg/L
Michaelis-Menton (MM) EC 90 (calculated) [2]: 36.5 mg/L
B1: antibody having a heavy chain variable domain (VH) of SEQ ID NO:1 and a light chain variable domain (VL) of SEQ ID NO:2 (CAEL101) (antibody, IgG1, V domains shown)
VH: QVQLKESGPGLVAPSQSLSITCTVSGFSLSSYGVSWVRQPPGKGLEWLGVIWGDGSTNYHPNLMSRLSISKDISKSQVLFKLNSLQTDDTATYYCVTLDYWGQGTSVTVSS
VL: DVVMTQTPLSLPVSLGDQASISCRSSQSLVHRNGNTYLHWYLQKPGQSPKLLIYKVSNRFSGVPDRFSGSGSGTDFTLKISRVEAEDLGLYFCFQTTYVPNTFGGGTKLEIK

Source: patent publication US20230364228A1
